Molecular target: human tau protein, P10636
Sequence (P10636 whole entry, looked up): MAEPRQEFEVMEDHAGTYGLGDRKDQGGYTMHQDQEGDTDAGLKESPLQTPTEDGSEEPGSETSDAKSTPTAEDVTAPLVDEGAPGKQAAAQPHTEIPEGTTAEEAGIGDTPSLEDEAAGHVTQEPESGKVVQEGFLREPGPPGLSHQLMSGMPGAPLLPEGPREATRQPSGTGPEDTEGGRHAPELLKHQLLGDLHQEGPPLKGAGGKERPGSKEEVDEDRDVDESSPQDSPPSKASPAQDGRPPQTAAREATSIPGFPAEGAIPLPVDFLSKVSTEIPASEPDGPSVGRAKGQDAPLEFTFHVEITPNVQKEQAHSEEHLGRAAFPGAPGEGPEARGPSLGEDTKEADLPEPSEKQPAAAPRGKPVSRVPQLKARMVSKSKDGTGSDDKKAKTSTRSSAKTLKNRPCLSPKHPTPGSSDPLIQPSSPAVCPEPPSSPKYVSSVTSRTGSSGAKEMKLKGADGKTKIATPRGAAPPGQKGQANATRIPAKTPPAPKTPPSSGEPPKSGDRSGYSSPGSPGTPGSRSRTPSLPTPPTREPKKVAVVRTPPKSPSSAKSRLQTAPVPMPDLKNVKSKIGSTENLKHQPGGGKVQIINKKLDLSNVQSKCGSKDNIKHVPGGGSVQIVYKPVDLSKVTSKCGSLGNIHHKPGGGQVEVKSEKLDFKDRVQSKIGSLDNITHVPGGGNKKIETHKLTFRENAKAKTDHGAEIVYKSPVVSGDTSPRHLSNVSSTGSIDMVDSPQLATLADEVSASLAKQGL

B1: human MARK4 (microtubule affinity regulating kinase 4) (protein)
chain: MSSRTVLAPGNDRNSDTHGTLGSGRSSDKGPSWSSRSLGARCRNSIASCPEEQPHVGNYRLLRTIGKGNFAKVKLARHILTGREVAIKIIDKTQLNPSSLQKLFREVRIMKGLNHPNIVKLFEVIETEKTLYLVMEYASAGEVFDYLVSHGRMKEKEARAKFRQIVSAVHYCHQKNIVHRDLKAENLLLDAEANIKIADFGFSNEFTLGSKLDTFCGSPPYAAPELFQGKKYDGPEVDIWSLGVILYTLVSGSLPFDGHNLKELRERVLRGKYRVPFYMSTDCESILRRFLVLNPAKRCTLEQIMKDKWINIGYEGEELKPYTEPEEDFGDTKRIEVMVGMGYTREEIKESLTSQKYNEVTATYLLLGRKTEEGGDRGAPGLALARVRAPSDTTNGTSSSKGTSHSKGQRSSSSTYHRQRRHSDFCGPSPAPLHPKRSPTSTGEAELKEERLPGRKASCSTAGSGSRGLPPSSPMVSSAHNPNKAEIPERRKDSTSTPNNLPPSMMTRRNTYVCTERPGAERPSLLPNGKENSSGTPRVPPASPSSHSLAPPSGERSRLARGSTIRSTFHGGQVRDRRAGGGGGGGVQNGPPASPTLAHEAAPLPAGRPRPTTNLFTKLTSKLTRRVADEPERIGGPEVTSCHLPWDQTETAPRLLRFPWSVKLTSSRPPEALMAALRQATAAARCRCRQPQPFLLACLHGGAGGPEPLSHFEVEVCQLPRPGLRGVLFRRVAGTALAFRTLVTRISNDLEL
in vitro kinase assay: phospho-tau, Western blot: the levels of total tau and phospho-tau generated by MARK4 were detected by Western blot analysis

Source: patent US20160030510
